Source: US20100279930A1 (published 2010)
Like-named read-outs stand apart in the source and are kept apart here. No end group written: not given here.

How the values were obtained:
[1] = target: T1, human Y4 receptor (human, UniProt P50391 1-375); test: 125I-PP displacement
[2] = target: T1, human Y4 receptor; test: 125I-PP displacement; remark: listed apart in the source

T1 sequence (P50391 whole entry): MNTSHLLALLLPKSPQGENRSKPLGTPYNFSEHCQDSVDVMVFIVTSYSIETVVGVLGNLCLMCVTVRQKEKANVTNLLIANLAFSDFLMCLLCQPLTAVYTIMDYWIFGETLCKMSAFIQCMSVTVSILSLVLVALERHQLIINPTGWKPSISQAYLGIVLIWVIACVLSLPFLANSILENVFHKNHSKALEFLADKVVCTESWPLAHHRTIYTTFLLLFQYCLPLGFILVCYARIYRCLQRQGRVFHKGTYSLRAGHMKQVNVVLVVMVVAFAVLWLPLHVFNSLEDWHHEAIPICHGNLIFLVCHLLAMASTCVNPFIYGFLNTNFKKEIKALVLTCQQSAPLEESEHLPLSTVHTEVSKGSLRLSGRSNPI

| Binder | IC50 [1] [nM] | IC50 [2] [nM] |
| --- | --- | --- |
| AAPLEPFYPGDDATPQQIAHYAAELRRYINTLTRPRY [7148] | 0.16 | – |
| AAPLEPFYPGDDATPQQMAHYAAELRRYINTLTRPRY [7147] | 0.148 | – |
| AAPLEPVYPGDDATPQQMAQYAAELRRYINMLTRPRY [6866] | 0.17 | – |
| AAPLEPFYPGDDATPQQMAHYAAELRRYINMLTRPRY [7144] | 0.216 | – |
| APLEPVYPGDNATPEELVKYYSALRHYINMLTRPRY [7103] | 0.2 | – |
| APLEPVYPGDNATPEEIVHYFIELRRYINMLTRPRY [7125] | 0.1 | – |
| APLEPVYPGDNATPEEIVKYFIELRRYINMLTRPRY [7124] | 0.31 | – |
| APLEPVYPGDNATPEELVKYAAELRRYINMLTRPRY [7163] | 0.146 | – |
| APLEPVYPGDNATPEELVKYYASLRRYINMLTRPRY [7109] | 0.083 | – |
| GAPLEPTYPGDNATPEQLAKYYSELRRYINHLTRPRY [4060272] | – | 0.095 |
| GAPLEPVYPGDNATPEQMAKYYSELRRYINKLTRPRY [4060147] | – | 0.077 |
| PAPLEPHYPGDNATPEQLARYYSELRRYINKLTRPRY [4059966] | – | 0.053 |
| AAPLEPVYPGDNATPEELVKYYSALRRYINLLTRPRY [7112] | 0.095 | – |
| PAPLEPVYPGDNATPEELVKYYSALRHYINMLTRPRY [7104] | 0.225 | – |
| GAPLEPVYPGDNATPEELVKYYSALRRYINMLTRPRY [7102] | 0.114 | – |
| CAPLEPVYPGDNATPEQMAQYAADLRRYINCLTRPRY [7117] | 0.351 | – |
| GAPLEPVYPGDNATPEQMAHYAAELRRYINMLTRPRY [7162] | 0.219 | – |
| PAPLEPVYPGDNATPEQMAHYAAELRRYINMLTRPRY [7161] | 0.188 | – |
| PAPLEPFYPGDNATPEQMAHYAADLRRYINTLTRPRY [7143] | 0.188 | – |
| AAPLEPVYPGDNATPEQMAQYAAALRRYINKLTRPRY [compound of SEQ ID NO:168 (Ala 0, Ala 23 and Lys 30, code 7215)] | 0.057 | – |

| Binder | IC50 [1] [nM] | IC50 [2] [nM] |
| --- | --- | --- |
| PAPLEPVYPGDNATPEQMAQYAAALRRYINKLTRPRY [7217] | 0.066 | – |
| PAPLEPVYPGDNATPEQMAQYAADLRRYINKLTRPRY [7220] | 0.1 | – |
| AAPLEPVYPGDNATPEELARYAAELRRYINKLTRPRY [4060135] | – | 0.197 |
| APLEPVYPGDNATPEQMAQYAADLRRYINCLTRPRY [7115] | 0.229 | – |
| APLEPKYPGDNATPEQMAQYAAALRRYINKLTRPRY [7231] | 0.089 | – |
| APLEPVYPGDDATPEQMAHYAAELRRYINMLTRPRY [7165] | 0.183 | – |
| APLEPVYPGDNATPEQMAHYAAELRRYINMLTRPRY [7160] | 0.15 | – |
| PAPLEPTYPGDNATPEQKAKYAAELRRYINKLTRPRY [4060203] | – | 0.067 |
| GAPLEPRYPGDNATPEEMAKYAAELRRYINKLTRPRY [4060144] | – | 0.101 |
| PAPLEPRYPGDNATPEEMAKYAAELRRYINKLTRPRY [4060143] | – | 0.095 |
| PAPLKPEYPGDNATPEQLAKYAAELRRYINKLTRPRY [4059859] | – | 0.108 |
| PAPLEPHYPGDNATPEELARYAAELRRYINKLTRPRY [4060139] | – | 0.121 |
| HAPLKPKAPGDNATPEQLAKYAAELRRYINKLTRPRY [4059861] | – | 0.1 |
| APLEPEYPGDDATPQQMAHYAAELRRYINMLTRPRY [7149] | 0.119 | – |
| GAPLEPHYPGDNATPEEMAKYAAELRRYINKVTRPRY [4059947] | – | 0.066 |
| GAPLEPEYPGDNATPEQKARYAAALRRYINHLTRPRY [4060130] | – | 0.072 |
| PAPLEPVYPGDDATPQQMAHYYSELRRYINMLTRPRY [7137] | 0.072 | – |
| AAPLEPVYPGDDATPQQMAHYYSELRRYINMLTRPRY [7138] | 0.13 | – |
| HAPLEPVYPGDDATPQQMAHYYSELRRYINMLTRPRY [7139] | 0.137 | – |

Now from value to binder:

| IC50 [1] [nM] | IC50 [2] [nM] | Binder |
| --- | --- | --- |
| 0.146 | – | AAPLEPVYPGDNATPEQMAHYAAELRRYINTLTRPRY [7158] |
| 0.149 | – | HAPLEPFYPGDDATPQQMAHYAAELRRYINMLTRPRY [7146] |
| 0.173 | – | PAPLEPVYPGDDATPQEIVHYFIELRRYINTLTRPRY [7133] |
| 0.118 | – | APLEPVYPGDNATPEEINHYYSALRRYINMLTRPRY [7122] |
| 0.077 | – | APLEPVYPGDNATPEELVKYYSALRRYINLLTRPRY [7111] |
| – | 0.044 | AAPLEPHYPGDNATPEQMARYYSELRRYINKLTRPRY [4059955] |
| 0.09 | – | PAPLEPVYPGDNATPEEINHYYSALRRYINMLTRPRY [7123] |
| 0.15 | – | AAPLEPVYPGDNATPEQMAQYAADLRRYINKLTRPRY (ends and bridges not checked) [compound of SEQ ID NO:171 (code 7218)] |
| 0.22 | – | DAPLEPVYPGDNATPEQMAQYAADLRRYINKLTRPRY [7219] |
| 0.109 | – | DAPLEPVYPGDNATPEQMAQYAAALRRYINKLTRPRY [7216] |
| 0.21 | – | APLEPKYPGDNATPEQMAQYAAALRRYINMLTRPRY [7230] |
| – | 0.128 | GAPLEPEYPGDNATPEQKAKYAAALRRYINHLTRPRY [4060274] |
| – | 0.118 | PAPLEPTYPGDNATPEQLAKYYSELRRYINHLTRPRY [4060273] |
| – | 0.106 | GAPLEPTYPGDDATPEQLAKYAAELRRYINKLTRPRY [4060210] |
| – | 0.108 | PAPLEPHYPGDNATPEEMAKYATELRRYINKLTRPRY [4059934] |
| 0.25 | – | PAPLEPVYPGDNATPEELVKYYASLRHYINMLTRPRY [7108] |
| 0.18 | – | APLEPVYPGDDATPQQIAHYYSELRRYINMLTRPRY [7135] |
| 0.149 | – | APLEPVYPGDDATPQQMAHYYSELRRYINMLTRPRY [7136] |
| – | 0.085 | GAPLEPHYPGDNATPEEMAKYATELRRYINKLTRPRY [4059932] |
| – | 0.081 | GAPLEPHYPGDNATPEEMAKYASELRRYINKLTRPRY [4059935] |
| – | 0.095 | GAPLEPEAPGDNATPEQMAKYAAALRRYINKLTRPRY [4059977] |
